# Assay results from patent US20080181886A1, “Polypeptides That Bind Baff And/Or April” (Genentech, Inc., priority 2004, published 2008).
# Columns and labels:
# human BAFF [1] = molecular target: human BAFF (UniProt Q9Y275); assay: competitive SPR; elute 2
# TRX-APRIL (mouse) [2] = molecular target: TRX-APRIL (mouse) (UniProt Q9D777); assay: competitive SPR; elute 2
# human BAFF [3] = molecular target: human BAFF (UniProt Q9Y275); assay: competitive SPR; elute 1
# TRX-APRIL (mouse) [4] = molecular target: TRX-APRIL (mouse) (UniProt Q9D777); assay: competitive SPR; elute 1
# human BAFF [5] = molecular target: human BAFF (UniProt Q9Y275); assay: competitive SPR; elute 1; interaction observed, curve not fitted adequately
# human BAFF [6] = molecular target: human BAFF (UniProt Q9Y275); assay: competitive SPR; elute 2; interaction observed, curve not fitted adequately
# Chain of human BAFF (Q9Y275 82-285): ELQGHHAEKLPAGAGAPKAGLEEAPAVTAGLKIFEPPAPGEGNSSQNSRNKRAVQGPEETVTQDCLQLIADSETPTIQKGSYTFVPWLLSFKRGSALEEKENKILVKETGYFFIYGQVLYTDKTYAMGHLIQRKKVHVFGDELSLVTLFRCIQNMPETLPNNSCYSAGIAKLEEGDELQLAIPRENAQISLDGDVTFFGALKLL
# Chain of TRX-APRIL (mouse) (Q9D777 104-241): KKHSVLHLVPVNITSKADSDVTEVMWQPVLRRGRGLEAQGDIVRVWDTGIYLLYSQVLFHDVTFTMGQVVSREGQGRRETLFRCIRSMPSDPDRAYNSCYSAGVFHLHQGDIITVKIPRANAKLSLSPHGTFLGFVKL
# Chain of TACI_d1 (first CRD of TACI, residues 32-67) (O14836 32-67): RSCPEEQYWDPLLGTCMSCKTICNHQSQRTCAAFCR
IC50 (human BAFF [1]) [nM],IC50 (TRX-APRIL (mouse) [2]) [nM],IC50 (human BAFF [3]) [nM],IC50 (TRX-APRIL (mouse) [4]) [nM],IC50 (human BAFF [5]) [nM],IC50 (human BAFF [6]) [nM],Substance
23,129,6,12,,,hTACI CRD1 LS (human TACI CRD1 R32-R67 with NHQSQRT replaced by GQHPKQ of CRD2)
,1000,,3000,> 100,> 100,"TACI_d1 (first CRD of TACI, residues 32-67)"
